Results on one molecule are retold here after patent US20260007740A1 (SPYBIOTECH, published 2026).

The experiment deals with T1, SpyCatcher-HBsAg (Hepatitis B virus (adw serotype) for …).
T1 construct: Expressed in Pichia pastoris; also called HBsAg VLP monomer; SpyCatcher-HBsAg VLP
The experiment is described as follows: isopeptide conjugation in TBS, followed by SDS-PAGE and Western blot. (Immunoblotting shows a protein as a band on a membrane.)

B1: RSV-F-SpyTag (RSV-F Sc9-10 DS-Cav1 A149C Y458C-SpyTag-Ctag) (other)
chain: QNITEEFYQSTCSAVSKGYLSALRTGWYTSVITIELSNIKENKCNGTDAKVKLIKQELDKYKNAVTELQLLMQSTPATGSGSAICSGVAVCKVLHLEGEVNKIKSALLSTNKAVVSLSNGVSVLTFKVLDLKNYIDKQLLPILNKQSCSISNIETVIEFQQKNNRLLEITREFSVNAGVTTPVSTYMLTNSELLSLINDMPITNDQKKLMSNNVQIVRQQSYSIMCIIKEEVLAYVVQLPLYGVIDTPCWKLHTSPLCTTNTKEGSNICLTRTDRGWYCDNAGSVSFFPQAETCKVQSNRVFCDTMNSRTLPSEVNLCNVDIFNPKYDCKIMTSKTDVSSSVITSLGAIVSCYGKTKCTASNKNRGIIKTFSNGCDYVSNKGVDTVSVGNTLYCVNKQEGKSLYVKGEPIINFYDPLVFPSDEFDASISQVNEKINQSLAFIRKSDELLSAIGGYIPEAPRDGQAYVRKDGEWVLLSTFLGSGGSGAHIVMVDAYKPTKEPEA
notes: Pre-fusion-stabilised single-chain RSV F with T4 fibritin trimerisation motif; Expressed in ExpiCHO cells, purified through the C-tag; also called RSV-F-SpyTag-Ctag; RSF-F-SpyTag
On to B1, for which the binding result is “binds”.
